Source: US20230124669A1 (ADAGENE, published 2023)
One block for each binder: values may come before it.

Experiments:
[1] = molecular target: HER2 on HER2-positive tumor cells (SKOV3) (UniProt P04626 23-1255); assay: cell-based or functional assay
[2] = molecular target: T1, human CD3 (E and δ chain heterodimer) fused with human Fc fragment (human, UniProt P07766 23-126; P04234 22-105); assay: ELISA, plate coated with 2 µg/mL antigen-human Fc fusion, serially diluted IgG
T1 construct: ELISA coating antigen; the text prints 'E and 6 chain heterodimer', read as epsilon and delta
T1 sequence (P07766 23-126, stated change not applied, chain 1 of 2): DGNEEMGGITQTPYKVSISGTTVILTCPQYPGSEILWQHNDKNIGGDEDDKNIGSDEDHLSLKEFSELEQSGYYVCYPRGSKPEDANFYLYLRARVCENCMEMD
T1 sequence (P04234 22-105, stated change not applied, chain 2 of 2): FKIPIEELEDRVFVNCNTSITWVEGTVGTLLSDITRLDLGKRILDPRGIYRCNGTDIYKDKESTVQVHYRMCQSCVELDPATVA
Protocol: 2 μg/mL of human HER2 or CD3 (E and 6 chain heterodimer) fused with human Fc fragment, were prepared and used to coat the ELISA plate at 2-8′C overnight. After washing and blocking, 50 μL serial diluted IgGs were added and incubated at 37′C for 1 hour. Plates were washed three times and then incubated with 50 μL/well TMB substrate at room temperature for about 20 minutes. Absorbance at 450 nm was measured after the reaction was stopped. The data was analyzed by GraphPad Prism 6 with nonlinear fitting.

[3] = molecular target: T2, mouse CD137 expressed on cells (mouse, UniProt P20334 24-256); assay: told in words; cross-reactivity by flow cytometry on antigen-expressing cells (FIG. 13)
T2 construct: whole, on cells
T2 sequence (looked up): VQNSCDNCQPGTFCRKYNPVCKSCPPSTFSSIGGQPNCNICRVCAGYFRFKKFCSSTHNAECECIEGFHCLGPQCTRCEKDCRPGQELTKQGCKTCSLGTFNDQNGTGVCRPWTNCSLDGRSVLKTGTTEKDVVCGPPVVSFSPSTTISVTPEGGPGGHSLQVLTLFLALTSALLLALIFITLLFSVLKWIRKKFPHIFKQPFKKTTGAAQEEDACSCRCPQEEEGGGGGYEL
Protocol: (§1) The affinity of antibodies was also assessed against human, monkey and mouse CD137 or PDL1 that were transiently expressed on the surface of yeast or HEK293F cells. Briefly, yeast or HEK293F cells were transfected with a plasmid expressing human, monkey or mouse CD137 or PDL1. After 48 hours, the transfected cells were harvested and then washed. Cells were then incubated with IgGs (each at 100 nM) at 4° C. in the shaking bed for 1 hour shaking at 300 rpm, protected from light. For simultaneously binding, cell were incubated with biotinylated human CD137 or PDL1 protein fused with human Fc fragment, and SA-PE (streptavidin, phycoerythrin conjugated). For cross-reactivity, cells were incubated with Alexa Fluor 647 conjugated mouse anti-human Fc antibodies. The mixtures were incubated at 4° C. in the shaking bed for 30 minutes shaking at 300 rpm, protected from light. The cells were washed once prior to analysis by flow cytometry (Beckman CytoFlex).

Human PDL1 (SPR analyte) = molecular target: T3, Human PDL1 (SPR analyte) (human, UniProt Q9NZQ7 19-238, limits assumed); assay: SPR (Biacore T200), antibody captured by anti-human IgG on CM5 chip, antigen injected as analyte, 1:1 Langmuir fit
T3 construct: also called PDL1H
T3 sequence (Q9NZQ7 19-238 limits assumed): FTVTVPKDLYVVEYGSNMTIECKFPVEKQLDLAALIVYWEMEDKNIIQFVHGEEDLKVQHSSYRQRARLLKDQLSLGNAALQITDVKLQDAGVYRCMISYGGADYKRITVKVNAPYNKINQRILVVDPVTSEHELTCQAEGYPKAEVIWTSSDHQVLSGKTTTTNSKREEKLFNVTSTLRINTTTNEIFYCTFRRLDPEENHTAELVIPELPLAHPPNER
Protocol: (§2) Biacore T200 (GE Healthcare) was used as a high performance system for real-time biomolecular interaction analysis, using surface plasmon resonance technology (“SPR”). During the measurement, anti-human IgG monoclonal antibody from the Human Antibody Capture Kit provided by Biacore was immobilized on CM5 chips, and IgG sample was injected onto sensor chip. Analytes were injected onto IgG captured flow cell for binding kinetic analysis in HBS-EP buffer.

[4] = molecular target: T4, Human CD137 (SPR analyte) (human, UniProt Q07011 24-186, limits assumed); assay: as above
T4 construct: also called CD137H
Protocol: as §2

[5] = molecular target: T5, mouse PDL1 expressed on cells (mouse, UniProt Q9EP73 19-290); assay: flow cytometry, antigen transiently expressed on yeast or HEK293F cells, IgG at 100 nM, Alexa Fluor 647 anti-human Fc detection (FIG. 13)
T5 construct: whole, on cells
T5 sequence (Q9EP73 19-290): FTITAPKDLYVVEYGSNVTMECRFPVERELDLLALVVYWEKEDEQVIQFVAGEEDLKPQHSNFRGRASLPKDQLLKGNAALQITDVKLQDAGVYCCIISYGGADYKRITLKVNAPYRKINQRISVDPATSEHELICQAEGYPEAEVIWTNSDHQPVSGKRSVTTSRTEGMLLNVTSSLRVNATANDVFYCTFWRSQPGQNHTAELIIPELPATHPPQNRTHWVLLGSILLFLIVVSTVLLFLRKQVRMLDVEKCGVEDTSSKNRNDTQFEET
Protocol: as §1

[6] = molecular target: T2, mouse CD137 expressed on cells; assay: as above
Protocol: as §1

[7] = molecular target: T5, mouse PDL1 expressed on cells; assay: told in words; cross-reactivity by flow cytometry on antigen-expressing cells (FIG. 13)
Protocol: as §1

B1: TY24052 (bispecific antibody)
heavy: not shown
chain: not shown
light: EVGSYPYDDPDCPSHDSDCDNSGRSAGGGGTPLGLAGSGGSQAVVTQEPSLTVSPGGTVTLTCGSSTGAVTTSNYANWVQQKPGQAPRGLIGGTNKRAPGVPARFSGSLLGGKAALTLSGAQPEDEAEYYCALWYSNLWVFGGGTKLTVLRGGGGSGGGGSGGGGSGGGGSEVQLVESGGGLVQPGGSLRLSCAASGFTFNTYAMNWVRQAPGKGLEWVGRIRSKYNNYATYYADSVKGRFTISRDDSKNTLYLQMNSLRAEDTAVYYCVRHGNFGNSYVSWFAYWGQGTLVTVSSEPKSSDKTHTCPPCPAPELLGGPSVFLFPPKPKDTLMISRTPEVTCVVVDVSHEDPEVKFNWYVDGVEVHNAKTKPREEQYASTYRVVSVLTVLHQDWLNGKEYKCKVSNKALPAPIEKTISKAKGQPREPQVYTDPPSRDELTKNQVSLTCLVDGFYPSDIAVEWESNGQPENCYKTTPPVLDSDGSFFLYSKLTVDKSRWQQGNVFSCSVMHEALHNHYTQDSLSLSPGK
notes: Masked, cleavable version of TY24051, uncleaved; IgG1 Fc with TYM13 mutations and N297A; also called SAFEbody
EC50 of T-cell mediated killing of SKOV3 cells, fold increase compared with TY24051 [1]: ~800 fold
binding result [2]: binds

B2: anti-CD137 Fv (antibody, V domains shown)
VH: EVQLVESGGGLVQPGGSLRLSCAASGFSLSTGGVGVGWIRQAPGKGLEWLALIDWADDKYYSPSLKSRLTISRDNSKNTLYLQLNSLRAEDTAVYYCARGGSDTVIGDWFAYWGQGTLVTVSS
VL: DIQLTQSPSSLSASVGDRVTITCRASQSIGSYLAWYQQKPGKAPKLLIYDASNLETGVPSRFSGSGSGTDFTLTISSLQPEDFATYYCQQGYYLWTFGQGTKVEIKR
notes: Named only as the anti-CD137 Fv used in the bispecific and parental antibodies; also called CD137 VH / CD137 VL
binding result [3]: binds

B4: TY22148 (bispecific antibody, human IgG1, kappa)
heavy: DIQLTQSPSSLSASVGDRVTITCRASQSIPSFLNWYQQKPGKAPKLLIYAASSLQSGVPSRFSGSGSGTDFTLTISSLQPEDFATYYCQHYISWPRQFTFGQGTKVEIKRTVAAPSVFIFPPSDEQLKSGTASVVCLLNNFYPREAKVQWKVDNALQSGNSQESVTEQDSKDSTYSLSSTLTLSKADYEKHKVYACEVTHQGLSSPVTKSFNRGEC
light: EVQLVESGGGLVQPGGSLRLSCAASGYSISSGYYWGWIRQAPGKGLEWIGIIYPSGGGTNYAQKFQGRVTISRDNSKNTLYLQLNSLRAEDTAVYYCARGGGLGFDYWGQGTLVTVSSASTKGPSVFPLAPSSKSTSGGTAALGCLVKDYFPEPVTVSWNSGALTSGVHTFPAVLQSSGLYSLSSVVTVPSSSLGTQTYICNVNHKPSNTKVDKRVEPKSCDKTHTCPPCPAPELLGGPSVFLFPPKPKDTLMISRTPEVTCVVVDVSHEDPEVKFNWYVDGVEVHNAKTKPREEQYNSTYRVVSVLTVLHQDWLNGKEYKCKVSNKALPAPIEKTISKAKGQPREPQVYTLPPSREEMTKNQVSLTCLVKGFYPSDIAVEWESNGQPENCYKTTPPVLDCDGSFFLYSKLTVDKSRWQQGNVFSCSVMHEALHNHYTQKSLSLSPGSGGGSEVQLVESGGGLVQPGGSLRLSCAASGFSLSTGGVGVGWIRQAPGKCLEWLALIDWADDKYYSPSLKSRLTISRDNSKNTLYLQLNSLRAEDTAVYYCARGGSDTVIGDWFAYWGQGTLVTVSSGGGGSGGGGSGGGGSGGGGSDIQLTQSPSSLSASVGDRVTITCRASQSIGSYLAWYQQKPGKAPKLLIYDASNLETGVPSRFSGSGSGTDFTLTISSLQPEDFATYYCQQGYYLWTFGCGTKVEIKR
notes: Morrison format: anti-PDL1 Fab, anti-CD137 scFv; IgG1 with N390C:S400'C; also called PDL1 × CD137 bispecific antibody, format TYF02
Kd (Human PDL1 (SPR analyte)): 7.7 nM
Kd [4]: 6.7 nM
binding result [5]: binds
binding result [6]: binds

Continued, values first:

binding result [2]: binds
B3: TY24051 (bispecific antibody)
heavy: not shown
chain: not shown
light: QAVVTQEPSLTVSPGGTVTLTCGSSTGAVTTSNYANWVQQKPGQAPRGLIGGTNKRAPGVPARFSGSLLGGKAALTLSGAQPEDEAEYYCALWYSNLWVFGGGTKLTVLRGGGGSGGGGSGGGGSGGGGSEVQLVESGGGLVQPGGSLRLSCAASGFTFNTYAMNWVRQAPGKGLEWVGRIRSKYNNYATYYADSVKGRFTISRDDSKNTLYLQMNSLRAEDTAVYYCVRHGNFGNSYVSWFAYWGQGTLVTVSSEPKSSDKTHTCPPCPAPELLGGPSVFLFPPKPKDTLMISRTPEVTCVVVDVSHEDPEVKFNWYVDGVEVHNAKTKPREEQYASTYRVVSVLTVLHQDWLNGKEYKCKVSNKALPAPIEKTISKAKGQPREPQVYTDPPSRDELTKNQVSLTCLVDGFYPSDIAVEWESNGQPENCYKTTPPVLDSDGSFFLYSKLTVDKSRWQQGNVFSCSVMHEALHNHYTQDSLSLSPGK
notes: Anti-HER2 Fab arm and anti-CD3 scFv arm, IgG1 Fc with TYM13 mutations and N297A; also called HER2×CD3 bispecific T-cell-engaging antibody; parental bispecific Fab X scFv in IgG1

binding result [7]: binds
B5: anti-PDL1 Fv (antibody, V domains shown)
VH: EVQLVESGGGLVQPGGSLRLSCAASGYSISSGYYWGWIRQAPGKGLEWIGIIYPSGGGTNYAQKFQGRVTISRDNSKNTLYLQLNSLRAEDTAVYYCARGGGLGFDYWGQGTLVTVSS
VL: DIQLTQSPSSLSASVGDRVTITCRASQSIPSFLNWYQQKPGKAPKLLIYAASSLQSGVPSRFSGSGSGTDFTLTISSLQPEDFATYYCQHYISWPRQFTFGQGTKVEIKR
notes: Named only as the anti-PDL1 Fv used in the bispecific and parental antibodies; also called PDL1 VH / PDL1 VL
